PMC8441438, “Dynamic regulation of mitotic ubiquitin ligase APC/C by coordinated Plx1 kinase and PP2A phosphatase action on a flexible Apc1 loop” (The EMBO Journal, 2021)
Changes are numbered by the printed parent chain. Numbers in names are those of the source. Non-standard residues stand in square brackets, D forms with d. pT = C[C@@H](OP(=O)(O)O)[C@H](N)C(=O)O; pS = N[C@@H](COP(=O)(O)O)C(=O)O

B1: MBP-fused Apc1-loop^500 WT phosphorylated by Cdk2/cyclin A (domain or fragment, Xenopus tropicalis, UniProt Q08D52 515-584, looked up)
chain: GLAAPSLGMSNPMPRPSTPLESIS[pT]PAKPLNKHLAPMDEAGML[pS]PVPELRDSTRLHESTYLDDCTFHQFG
modifications: not fully specified (residue 18, N-terminus); also: MBP fusion, pT532 only in upper of two bands (partial), phosphorylated in vitro by Cdk2/cyclin A
notes: Apc1, Xenopus tropicalis, loop^500, residues 515-584; After phosphorylation the protein runs as two bands; only the upper one carries pT532; also called Apc1-loop^500 (CDK^+); phosphorylated MBP-Apc1-loop^500; source: recombinant, purified, then phosphorylated in vitro with purified Cdk2/cyclin A at 30°C for 2 h; not shown: MBP, N-terminal, kept
B2: MBP-fused Apc1-loop^500 T532A phosphorylated by Cdk2/cyclin A (domain or fragment, Xenopus tropicalis, UniProt Q08D52 515-584, looked up)
chain: GLAAPSLGMSNPMPRPSAPLESISTPAKPLNKHLAPMDEAGMLSPVPELRDSTRLHESTYLDDCTFHQFG
modifications: also: MBP fusion, phosphorylated in vitro by Cdk2/cyclin A, sites not given here
notes: Apc1, Xenopus tropicalis, loop^500, residues 515-584; source: recombinant, purified, then phosphorylated in vitro with purified Cdk2/cyclin A; not shown: MBP, N-terminal, kept
B3: MBP-fused Apc1-loop^500 E562A (domain or fragment, Xenopus tropicalis, UniProt Q08D52 515-584, looked up)
chain: B2 chain with A18T, E48A
notes: Apc1, Xenopus tropicalis, loop^500, residues 515-584; source: recombinant, purified as described previously (Fujimitsu & Yamano, 2020); not shown: MBP, N-terminal, kept
B4: MBP-fused Apc1-loop^500 WT fragment (domain or fragment, Xenopus tropicalis, UniProt Q08D52 515-584, looked up)
chain: B2 chain with A18T
notes: Apc1 (APC/C subunit 1), Xenopus tropicalis, loop^500, residues 515-584; Added unphosphorylated; becomes phosphorylated at CDK sites T532, T539 and S558 when incubated in anaphase egg extracts; MBP is PreScission-cleavable and His6 TEV-cleavable; also called MBP-Apc1-loop^500; CDK^- Apc1-loop^500; source: recombinant, purified as described previously (Fujimitsu & Yamano, 2020); not shown: MBP, …
B5: Plx1-PBD WT (polo-box domain of Plx1) (domain or fragment, Xenopus laevis, UniProt P70032 362-598, looked up)
chain: EPADCYLSEMLQQLTCLNAVKPSERALIRQEEAEDPASIPIFWISKWVDYSDKYGLGYQLCDNSVGVLFNDSTRLIMYNDGDSLQYIERNNTESYLNVRSYPTTLTKKITLLKYFRNYMSEHLLKAGANTTPREGDELARLPFLRTWFRTRSAIILHLSNGTVQINFFQDHTKIILCPLMAAVSYIDEKREFRTYKLSLIQEFGCCKELASRLRYARTMVEKLQSSKSAVAHVKASA
notes: Plx1, Xenopus laevis, polo-box domain, amino acids 362-598; 3xFlag is PreScission-cleavable, His6 TEV-cleavable; cleavage is not reported; also called WT Plx1-PBD; source: E. coli BL21-CodonPlus (DE3), purified (Ni-NTA agarose)

Legend:
Conditions in all cases: both partners purified
[1] = biological target: B5; experiment: pull-down; purified proteins only: MBP-fused Apc1-loop^500 incubated with or without purified Cdk2/cyclin A (30°C, 2 h, 1 mM ATP), bound to amylose beads, incubated with Plx1-PBD at 4°C (on ice) for 10 min in XB^CSF with 0.01% NP-40 without EGTA; Coomassie staining
[2] = biological target: B5; experiment: pull-down; dissociation assay: Plx1-PBD/MBP-Apc1-loop^500 complexes formed in anaphase extracts, isolated on amylose beads and incubated with (78 nM) or without purified PP2A-B56γ at 23°C for 30 or 60 min; PBD left on the beads by Coomassie staining
[3] = biological target: B5; experiment: pull-down; MBP-fused Apc1-loop^500 on amylose beads incubated in anaphase extracts at 23°C for 1 h, then purified Plx1-PBD (10 µg or indicated amounts) added to the extract for 15 min; bound proteins by SDS-PAGE and Coomassie staining
[4] = biological target: B4; experiment: as above

## B1
[1]
  binding result: binds

## B2
[1]
  binding result: binds

## B3
[2]
  binding result: binds

## B4
[3]
  binding result: binds

## B5
[4]
  stoichiometry N: > 1 Plx1-PBD per Apc1-loop^500
